Experimental findings from patent US20120316071A1 (published 2012) are described below.

Test [1] has as its target T1, rHuman Erythropoietin R/Fc Chimera, CF (R&D Systems Cat#963-ER) (human, UniProt P19235 25-250).
T1 construct: Bought recombinant protein; also called EPO R/Fc; Epo R; Fc part of the bought chimera not given
T1 sequence (looked up): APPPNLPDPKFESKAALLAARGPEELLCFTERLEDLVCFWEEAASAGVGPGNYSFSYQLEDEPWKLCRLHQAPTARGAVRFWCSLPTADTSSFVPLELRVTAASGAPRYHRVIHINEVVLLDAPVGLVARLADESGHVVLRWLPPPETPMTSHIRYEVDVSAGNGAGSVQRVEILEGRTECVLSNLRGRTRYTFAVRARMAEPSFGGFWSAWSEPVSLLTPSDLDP
Description: MSD multispot ECL, antigen spotted on plate; Fab 0.00797 uM; blank spot 364.

Test [2] has as its target T2, Recombinant Human DLL4 (R&D Systems Cat#1506-D4/CF) (human, UniProt Q9NR61 27-524).
T2 construct: Bought recombinant protein; also called delta-like protein 4; rHuman DLL4
Described as above.

For test [3], the target named is T3, rHuman ErbB2/Fc Chimera, CF (R&D Systems Cat#1129-ER) (human, UniProt P04626 23-652).
T3 construct: Bought recombinant protein; also called human epidermal growth factor 2 receptor; Fc part of the bought chimera not given
Described as above.

Test [4] has as its target T4, rHuman EGF R/Fc Chimera, CF (R&D Systems Cat#344-ER) (human, UniProt P00533 25-645).
T4 construct: Bought recombinant protein; also called epidermal growth factor receptor; Fc part of the bought chimera not given
The test is described as above.

Test [5] deals with T5, rHuman HGF R/c-MET/Fc Chimera, CF (R&D Systems Cat#358-MT/CF) (human, UniProt P08581 25-932).
T5 construct: Bought recombinant protein; also called HGF R/Fc; hepatocyte growth factor receptor; Fc part of the bought chimera not given
T5 sequence (P08581 25-932, change not shown): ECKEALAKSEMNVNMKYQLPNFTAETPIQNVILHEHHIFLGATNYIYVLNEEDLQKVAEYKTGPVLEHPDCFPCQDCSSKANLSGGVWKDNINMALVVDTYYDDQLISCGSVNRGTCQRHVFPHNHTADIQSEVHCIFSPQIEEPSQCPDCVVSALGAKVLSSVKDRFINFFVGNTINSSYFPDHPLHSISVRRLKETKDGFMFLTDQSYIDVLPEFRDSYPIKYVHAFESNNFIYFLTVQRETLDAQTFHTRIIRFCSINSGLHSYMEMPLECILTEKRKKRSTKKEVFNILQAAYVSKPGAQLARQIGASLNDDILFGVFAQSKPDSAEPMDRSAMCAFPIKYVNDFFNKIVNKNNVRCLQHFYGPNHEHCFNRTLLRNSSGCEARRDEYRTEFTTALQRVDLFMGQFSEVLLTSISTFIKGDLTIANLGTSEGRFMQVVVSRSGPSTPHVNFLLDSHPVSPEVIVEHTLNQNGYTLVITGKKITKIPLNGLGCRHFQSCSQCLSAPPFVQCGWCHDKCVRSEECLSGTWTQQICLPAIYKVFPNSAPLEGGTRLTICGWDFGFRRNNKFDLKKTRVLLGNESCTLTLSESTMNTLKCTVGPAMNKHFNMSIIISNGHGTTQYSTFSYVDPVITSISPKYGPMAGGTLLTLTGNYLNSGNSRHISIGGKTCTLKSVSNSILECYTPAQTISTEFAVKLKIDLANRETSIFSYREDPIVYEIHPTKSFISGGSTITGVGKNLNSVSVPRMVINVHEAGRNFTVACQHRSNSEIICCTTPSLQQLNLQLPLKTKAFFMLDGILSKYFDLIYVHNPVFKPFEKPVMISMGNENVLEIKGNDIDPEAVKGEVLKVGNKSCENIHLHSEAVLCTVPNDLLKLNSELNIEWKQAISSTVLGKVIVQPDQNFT
The description is as above.

Test [6] has as its target T6, rHuman Notch-1/Fc Chimera, CF (R&D Systems Cat#3647-TK) (human, UniProt P46531 19-526).
T6 construct: Bought recombinant protein; Fc part of the bought chimera not given
The description is as above.

Test [7] has as its target T7, rHuman CD44/Fc Chimera, CF (R&D Systems Cat#3660-CD) (human, UniProt P16070 21-220).
T7 construct: Bought recombinant protein; Fc part of the bought chimera not given
The description is as above.

Test [8] addresses T8, rHuman IGF-1 sR, CF (R&D Systems Cat#391-GR) (human, UniProt P08069 31-932).
T8 construct: Bought recombinant soluble receptor; also called insulin-like growth factor-1 soluble receptor
The test is described as above.

Test [9] concerns the target T9, rHuman P-Cadherin/Fc Chimera, CF (R&D Systems Cat#861-PC) (human, UniProt P22223 108-654).
T9 construct: Bought recombinant protein; Fc part of the bought chimera not given
The test is described as above.

Test [10] deals with T1, rHuman Erythropoietin R/Fc Chimera, CF …. Kind of test: MSD multispot ECL, antigen spotted on plate; Fab 0.03188 uM; blank spot 536.
The target of test [11] is T2, Recombinant Human DLL4 (R&D Systems …). Described as above.
The target of test [12] is T3, rHuman ErbB2/Fc Chimera, CF (R&D …). Described as above.
The target of test [13] is T4, rHuman EGF R/Fc Chimera, CF (R&D …). Described as above.
For test [14], the target named is T5, rHuman HGF R/c-MET/Fc Chimera, CF (R&D …). The description is as above.
Test [15] addresses T6, rHuman Notch-1/Fc Chimera, CF (R&D …). The description is as above.
For test [16], the target named is T7, rHuman CD44/Fc Chimera, CF (R&D Systems …). Described as above.
Test [17] deals with T8, rHuman IGF-1 sR, CF (R&D Systems …). The description is as above.
For test [18], the target named is T9, rHuman P-Cadherin/Fc Chimera, CF (R&D …). The description is as above.
Test [19] deals with T10, rHuman Erythropoietin R/Fc Chimera, CF (R&D Systems Cat#963-ER) (human, UniProt P19235 25-250).
T10 construct: Bought Fc chimera; also called EPO R/Fc; Epo R; Fc part of the bought chimera not given
T10 sequence (looked up): T1 sequence (looked up)
Description: MSD Multispot ECL, antigen spotted on plate, Fab at 15 nM; blank spot 261.

B1: Fab VH4-34_IGHD7-27*01_IGHJ4*01 & L5_IGKJ1*01 (Fab, V domains shown)
VH: QVQLQQWGAGLLKPSETLSLTCAVYGGSFSGYYWSWIRQPPGKGLEWIGEINHSGSTNYNPSLKSRVTISVDTSKNQFSLKLSSVTAADTAVYYCARANWGDYFDYWGQGTLVTVSS
VL: DIQMTQSPSSVSASVGDRVTITCRASQGISSWLAWYQQKPGKAPKLLIYAASSLQSGVPSRFSGSGSGTDFTLTISSLQPEDFATYYCQQANSFPPWTFGQGTKVEIKR
notes: Germline library Fab expressed in E. coli; VH was cloned into Plasmid A, which adds CH1 with His6 and Flag tags
With B1, the ECL signal in [1] was found to be 566; in [2], 872; in test [3], 493; in [4], 530; in test [5], 419; in test [6], 654. Moreover, the ECL signal in test [7] is 490; in [8], 564; in [9], 502; in [10], 789; in test [11], 1280; in test [12] it was 584. The ECL signal was 694 in test [13]; 693 in test [14]; 849 in test [15]; 653 in test [16]; 765 in test [17]; 775 in test [18].

B2: Fab VH6-1_IGHD3-3*01_IGHJ4*01 & V4-3_IGLJ4*01 (Fab, V domains shown)
VH: QVQLQQSGPGLVKPSQTLSLTCAISGDSVSSNSAAWNWIRQSPSRGLEWLGRTYYRSKWYNDYAVSVKSRITINPDTSKNQFSLQLNSVTPEDTAVYYCAREYYDFWSGYYTDYFDYWGQGTLVTVSS
VL: QPVLTQPTSLSASPGASARLTCTLRSGINLGSYRIFWYQQKPESPPRYLLSYYSDSSKHQGSGVPSRFSGSKDASSNAGILVISGLQSEDEADYYCMIWHSSASFVFGGGTQLIIL
notes: Tested as a purified germline Fab made in E. coli; The VH was cloned into plasmid A (CH1 constant region, His6 and Flag tags) and the lambda VL into plasmid E (lambda CL)
In [19], B2 gave an ECL signal of 397.
